According to a protein production outcome set (Wang et al. 2014):

Assay: label from the status in PepcDB records

Row | Sequence | protein production
1 | MDYFLLHGGGNADRQSGGVHRWLAGAIRELGMLVAETSGHDAFLEQIGAVHPEVVFVRFASSPARIDVPEHDQKLGEGTDAIGEATQLVAQLTRLFPGLPLVAVGSASDGRAMLAALRAGVKDFIDVDGAPAEAVRVVRRLLAERASAEPTRRGRVLAILGARPGVGTTTLASNLATLVRRTSGGDVMLLDLGQPLRDGALYLNVPANFHFVEAVRNLRRFDQVFVQTALSRHPNGLAVLPLPVSLAEMRDISFSEALGLLNRLRTFFDLQVVDLGGFNNIDFIAQLVKAADDVMLVTEQSVGAIVSAAELMQELKKREIDRERLHLILSKFDARLSLDAEQIGVRLEIPSVLTVPSRRRALVVASNQGAMLAETHPIDPYVRAIAGIVQTLGYTQPGERAPGVAGWMAGMRARLGERFRRKPTEPAELDLRTTERNAT | failed
2 | MCTIFKVNGKIHIKELISSIVIAEGVGALSGFLSMSNVKNYSNLKKPFFSPPGFIFPIVWVILYFLMAVAAYRIWVIGKEESKDVKKALVLYAVQLLFNFLWSIIFFKFNCYGAAFIELLILLFFILCATFQFHKHDKVAAFLMIPYILWVSFAGILNFAIWFLNRNSST | failed
3 | MITSRSTGELVIPVSRRINNKDGNFGGVFLVTLRVQYFSRFYADFRMDEQGVIVLADQNGTIMVRHPFDTNMIGRNIAKGDIFSKYLPHASRGVHMVVAITDKVERMYGYERLNRYPLVVLAGKSKRAILGSWYESLYGSLIMLCLILPIPVLFATLISRQIKTTLKVEDELRLAYAAVEAIAMQDSLTGLANRRQLDVVLPAEIKRAKRTSQPLGVIMVDIDYFKRYNDYYGHPAGDLCIKAIANVLKNHTRRAGNLAARYGGEELTVLLPSCDQAAVLAAAERIVESIRGLQIAHDDSPEGYLTVSVGAYSYSAFNKEVDASGLLKCADDALYAAKQAGRNRARLSA | failed
4 | MQTIIYQIAPNDWVTDEVLMASTGLKPGTILRARKKAWFVGREYKHMTLDGKPKANGECLYHLPTINRWIRNMPDPDVDLLEHHHHHH | not failed
5 | MVESKNTELSQGTWLNKPKSVFQEAGKVTLETDEKTDFWRETFYGFTRDSGHFLGVETGSAFTAQVRVQGSYESLYDQAGIMVRIDDGHWLKAGIEISDGHAMLSSVLTNGKSDWSTAVYGGNARDFWLRVTVEKGVLRIQVSSDKKTWPLVRLAPFPTSDHYLVGPMACTPERGGLKVTFSEWSLTAPLGKALHDLS | failed
6 | MAPHSLKKNYRCSRSLKQFYGGGPFIVSSDGSFIACACGDVINIVDSTDSSVKSTIEGESDTLTALALSPDDKLLFSAGHSRQIRVWDLETLKCIRSWKGHEGPVMGMACHASGGLLATAGADRKVLVWDVDGGFCTHYFRGHKGVVSSILFHPDSNKNILISGSDDATVRVWDLNAKNTEKKCLAIMEKHFSAVTSIALSEDGLTLFSAGRDKVVNLWDLHDYSCKATVATYEVLEAVTTVSSGTPFASFVASLDQKKSKKKESDSQATYFITVGERGVVRIWKSEGSICLYEQKSSDITVSSDDEESKRGFTAAAMLPSDHGLLCVTADQQFFFYSVVENVEETELVLSKRLVGYNEEIADMKFLGDEEQFLAVATNLEEVRVYDVATMSCSYVLAGHKEVVLSLDTCVSSSGNVLIVTGSKDKTVRLWNATSKSCIGVGTGHNGDILAVAFAKKSFSFFVSGSGDRTLKVWSLDGISEDSEEPINLKTRSVVAAHDKDINSVAVARNDSLVCTGSEDRTASIWRLPDLVHVVTLKGHKRRIFSVEFSTVDQCVMTASGDKTVKIWAISDGSCLKTFEGHTSSVLRASFITDGTQFVSCGADGLLKLWNVNTSECIATYDQHEDKVWALAVGKKTEMIATGGGDAVINLWHDSTASDKEDDFRKEEEAILRGQELENAVLDAEYTKAIRLAFELCRPHKVFELFSGLCRKRDSDEQIVKALQGLEKEEFRLLFEYVREWNTKPKLCHIAQFVLYKTFNILPPTEIVQVKGIGELLEGLIPYSQRHFSRIDRFVRSSFLLDYTLGEMSVIDPETVETEYPKDEKKKEKDVIAAMEQDTDELKQETPSRKRKSQKSKGKSNKKRLIAEAQGSVIAV | failed
7 | MNSFPAQNLMLSATNANKDSGLRTSNAHWLHSCIAVPKTTGIDLSQEPPAEGVMVPQSHLFPPPIRDSRNDTETVKQKSVNQSPSKALKPKPQRKKRSVSNKSKKTPSIPETKREKKNLDINIDISSFDTSGVPPPVCSCTGVSRVCYKWGMGGWQSSCCTISISTYPLPMSTTRPGARLAGRKMSNGAYVKLLARLADEGYDLSHPLDLKNHWARHGTNKFVTIK | failed
8 | MNDFKGWETRSYLFLALMVGVQLVAFAINPSNWITLVGGLAGIICVNLIAQGKVSNYIFGLISAVIIGYFGLVTRVYAEVLLQSFYIIMDITGLYAWLRASEDGSGQVTEVKVLKGIQWLYAFFTWLLIGVAAYILLGFVNDAQQTLDAITFSVSATGMLLMIKRYQSQFVFWLLGNIFSILLWFRAGTHAGGDYAIFVMYCMYTFNSIFGMFNWLKIKNKMEKNR | failed
9 | MGERSDSRLAAMRTDELNIDVVLVQRLVAGQFPRWAGLGVEAVDSGGTSNAMYRLGADLVVRLPRRAGAEGDVAKEHRWLPWLAPRLPVAVPVPLGQGLPAGNYPFRWSVYRWLDGATPDVGHLVAPGLLAEDLAGFIDALHRVDPAGGPDSYRSEHLAVRDTVTREAIEELRGVVDADAARAVWETALRAPVWAGPPVWIHADLQPGNVLVDRGRLGAVIDFGCLGLGDPAVDLIVAWYVLPGDVREAFRAAVAADDASWARGRGWALSIALVELRYYRDTNPVMAGHARRVIREVLDGRER | failed
10 | MKVTSAEKHALLLPDNRTLTWYESGPSDGQPVLFCTGAGMSGLLSMDADLLTKLNIRLITPTRPGLGESTFDPKKTLKSFSSDVLFLLAYLNIKNISVIGSSQGAVFAMAICYYGKVDKLAIVAGQDQLDYPEIKKLLSSDVVNMQQQALFDPDGLKTWIIENITADWLMDFILNYSADVDLALYQENKFFPVYQACMKEAFKYGNKGYAQDLLITMQPWGFTPEMISTPTTLWYGLKDTSTVHSPDFGKLLSQRFPHAQRYVYDNEGGSLLWTKTSQILTNLIS | failed
11 | MSIQAPPRLLELAGQSLLRDQALSISAMEELPRVLYLPLFMEAFRRRHFQTLTVMVQAWPFTCLPLGSLMKTLHLETLKALLEGLHMLLTQKDRPRRWKLQVLDLRDVDENFWARWPGAWALSCFPETMSKRQTAEDCPRMGEHQPLKVFIDICLKEIPQDECLRYLFQWVYQRRGLVHLCCSKLVNYLTPIKHLRKSLKIIYLNSIQQLEIRNMSWPRLIRKLRCYLKEMKNLRKLVFSRCLQNPLENLELTYGYLLEEDMKCLSQYPSLGYLKHLNLSYVLLFRISLEPLGALLEKIAASLETLILEGCQIHYSQLSAILPGLSHCSQLTTFYFGRNCMSMGALKDLLCHTSGLSKLSLETYPAPEESLNSLVRVDWEIFALLRAELMCTLREVRQPKRIFIGPTPCPSCGSSPSEELELHLCC | failed
12 | MASYAELFDIGEDFAAFVGHGLATEQGAVARFRQKLESNGLPSALTERLQRIERRYRLLVAGEMWCPDCQINLAALDFAQRLQPNIELAIISKGRAEDDLRQRLALERIAIPLVLVLDEEFNLLGRFVERPQAVLDGGPQALAAYKAGDYLEHAIGDVLAIIEGAAR | not failed
13 | MRNTNLQAMIESAILAAFALVIDILPLSIKLPTGGSISFAMIPIFIIAYRWGFKSAFLGGLVWGLLQIVVGDAYILTPVQAFIEYFIAFAFIGFAGLFYRPIQKALLTSNENNLEQSSLGSRKDKPSSKQNEGKKVLAYIILATFIGSFARYFCHFIAGIIFWGQYAPKGQSAVLYSLIVNGSTMIGSYILCTVLLIFLFLTSPRLFKSISAYQLNANKKGA | failed
14 | MEAITYKYYQEKYYGNILNEEDFKRYEKKARRKLSSFTFGRIDCLQNVPDEVGDCICDMAEKISLEESKENFSGIVSESTDGHSVTFEKKQSIEQMNKELYLIAVGYLNNTGLLYGGVCLCSTARNW | failed
15 | MQDKNFDKLAQKFAKNIYGTPKGEIRAAVLWRDLAPALAQFGDKKLRILDAGGGFGYFSQKLARLGHEVVLCDISAEMLAQAKEQIDASDTPLAIRLVHAPIQALSITEHGMFDLILCHAVVEWLADAKTTMEGLLTMLKPNGLFSLMFYNKEAMRFHALVSGNFDYVAADLKVKKKVRLTPTHPLYIHEVKLWFAQWQMALLKESGVRVIHDYLKKQQAADFDYQKLLSMELEYSQREPYISLGRYVHFLGQSTATHSELEHHHHHH | not failed
16 | MAVFVALGAFLMTLAGGWTAQRVTDRRHLVLGLAGGLMLGVVGMDLLPEALDAAGGKVFGVPAALLLFVAGFLLAHLVERLLAHRQAAHGGAESNGRAPEVGLTAAAAMVGHSAMDGVAIGAAFQVGGGMGLAVAVAVIAHDFADGFNTYTLTALYGNARRKAVIMLVADAVAPVLGAASTLAFTIPERLLGGYLALFGGALLYLAAAEILPEAHHEHPARSTLLCTVAGVGFIWLVVGLAG | failed
17 | AIANSSVSTHGTGDCPVNCTKSEDFAPSKLGTKEYWDGAYKRELQTYKDIGDVGEIWFGEESMHRVIRWMEAQNISENAAILDIGTGNGMFLVELARHGFSNLTGIDYSKAALELTTNILVEEGLKNINIQVEDFLNPSTELKGFDVCIDKGTFDAISLNPEDREEAKKHYVTSLRAVMRPNGFFIITSCNWTKEQLLEIFKPGFELVRELPTPNFQFGGVTGNSVTALVFKQTD | failed
18 | MGLGIVLQGEKQVVIGDQILTYCAGQTMLTTIDVPVVSHTHNAKNHKPFLGLMLLLDLSMISKVVTQMEQLNIKEKVQPSFAVQPIDYVLIEAVQRLVTLLDEPILLSQLSPIIQQEIMIRLLAGVNGVYLRQLIRVGSVSERVAKVVNWLKQNFVETIRLDELADRFYMSSATLRQHFREVTGMSPLQYQKHLRLQQARHLLFNQNLEVGHTADLVGYESVSQFSREYARLFGATPLKDKQAAQLS | failed
19 | MGYTLAEFLAHAIALETEAAERYVELADMMEAHNNLDTATVFRDMARFSTLHGDEIKQRSRALELPKLMSWQYRWKTPPEVGDENDIHYLMTPYHALRYARDNEIRGMEYYKEAAANSADPEVKRLGADFAAEEAEHVVALDKWIEKTPRPSITWSEDADPAQCVD | not failed
20 | MSWACRPATAQRQAGRNGGAPTVQSRVPRRASPRTHHPFVRLVATTLRPVRPYSDLLQHRLLHPMHRFVIVGLGNFGASVAEALYSHGHDVIAVDVDEQAVDDIAPHCSRAAVGDGREAATLEEIGAEAADAAVVSTGDDITASILATMALQDLGVDVVYVKVISDNHARIMRQLGATEAVFPERDSAFNLASRISEKGVVNYVRMGRNLSVQELVVPEEWRGHTLRELDVRAEYGVSVVGIHETTIDDMIVPPNPDDTLRHTDTLILAGTDEAIEKVADLASATAEEAE | failed
21 | MAKAFEEQRRSPDLEALPFEDRIGLLVDREAAERDTRRLTTRLKIAALRQTACVEDVDLRTPRGIDRAVFAKLVEGRWIDRHENLLVTGATGLGKSWLACALGHKACRDNRSVLYHRVPRLFEALALARGDGRYARLLKSLGRAQLLILDDWGLSVLTAAERRDLLEILEDRHGRASTIVTSQLPWTPGMEPLGTPRSPTPFSIASSTTPTASSSPEKACENAAPKPSPLTANQNTDSISHRPLEHHHHHH | failed
22 | MSAWTMSDPYPATEAHAQRAAKSSPKSLLDRLLSLVRREPEDREGIKAILEAAHERELLDAESYAMIKGALAVSERTVADIMVPRSRMDLLDISQPLPQLLATIIETAHSRFPVYEDDRDNIIGILLAKDLLRYMLEPALDIRSLVRPAVFIPEVKRLNVLLREFRASRNHLAIVIDEHGGISGLVTMEDVLEQIVGDIEDEFDEDEEESIFPEGENQWRLTASTDISHFNATFATDLPDDEYDSVGGWLGGQLGRIPRRGDSADHDGLHIEVVRADARRALWLRVRRNAGAQPPASAAE | not failed
